Results: patent US6541450B1, “Parathyroid hormone analogues for the treatment of osteoporosis” (National Research Council of Canada, priority 1994, dated 2003)
Bridges are numbered along the chain shown (N, C = ends). Where no end group is shown, it is not given here. [ ]: non-standard residue; d: D form. Orn = NCCC[C@H](N)C(=O)O

The binders below were run against PTH receptor (rat (ROS 17/2 rat osteosarcoma cell …, UniProt P25961)) (assay: cell-based or functional assay).

Row | Binder | Adenylyl Cyclase (EC50) [nM]
1 | SVSEIQLMHNLGKHLNSMERVCWLRCLLQDV-NH2 (disulfide 22-26; N-terminus assumed; SMILES CC[C@H](C)[C@H](NC(=O)[C@H](CCC(=O)O)NC(=O)[C@H](CO)NC(=O)[C@@H](NC(=O)[C@@H](N)CO)C(C)C)C(=O)N[C@@H](CCC(N)=O)C(=O)N[C@@H](CC(C)C)C(=O)N[C@@H](CCSC)C(=O)N[C@@H](Cc1c[nH]cn1)C(=O)N[C@@H](CC(N)=O)C(=O)N[C@@H](CC(C)C)C(=O)NCC(=O)N[C@@H](CCCCN)C(=O)N[C@@H](Cc1c[nH]cn1)C(=O)N[C@@H](CC(C)C)C(=O)N[C@@H](CC(N)=O)C(=O)N[C@@H](CO)C(=O)N[C@@H](CCSC)C(=O)N[C@@H](CCC(=O)O)C(=O)N[C@@H](CCCNC(=N)N)C(=O)N[C@H](C(=O)N[C@H]1CSSC[C@@H](C(=O)N[C@@H](CC(C)C)C(=O)N[C@@H](CC(C)C)C(=O)N[C@@H](CCC(N)=O)C(=O)N[C@@H](CC(=O)O)C(=O)N[C@H](C(N)=O)C(C)C)NC(=O)[C@H](CCCNC(=N)N)NC(=O)[C@H](CC(C)C)NC(=O)[C@H](Cc2c[nH]c3ccccc23)NC1=O)C(C)C) [[Cys^22, Cys^26, Leu^27]cyclo(Cys^22-Cys^26)-hPTH-(1-31)-NH2] | 16
2 | SVSEIQLMHNLGKHLNSMERVDWLR[Orn]LLQDV-NH2 (lactam 22-26; N-terminus assumed; SMILES CC[C@H](C)[C@H](NC(=O)[C@H](CCC(=O)O)NC(=O)[C@H](CO)NC(=O)[C@@H](NC(=O)[C@@H](N)CO)C(C)C)C(=O)N[C@@H](CCC(N)=O)C(=O)N[C@@H](CC(C)C)C(=O)N[C@@H](CCSC)C(=O)N[C@@H](Cc1c[nH]cn1)C(=O)N[C@@H](CC(N)=O)C(=O)N[C@@H](CC(C)C)C(=O)NCC(=O)N[C@@H](CCCCN)C(=O)N[C@@H](Cc1c[nH]cn1)C(=O)N[C@@H](CC(C)C)C(=O)N[C@@H](CC(N)=O)C(=O)N[C@@H](CO)C(=O)N[C@@H](CCSC)C(=O)N[C@@H](CCC(=O)O)C(=O)N[C@@H](CCCNC(=N)N)C(=O)N[C@H](C(=O)N[C@H]1CC(=O)NCCC[C@@H](C(=O)N[C@@H](CC(C)C)C(=O)N[C@@H](CC(C)C)C(=O)N[C@@H](CCC(N)=O)C(=O)N[C@@H](CC(=O)O)C(=O)N[C@H](C(N)=O)C(C)C)NC(=O)[C@H](CCCNC(=N)N)NC(=O)[C@H](CC(C)C)NC(=O)[C@H](Cc2c[nH]c3ccccc23)NC1=O)C(C)C) [[Leu^27]cyclo(Asp^22-Orn^26)-hPTH-(1-31)-NH2] | > 200
3 | SVSEIQLMHNLGKHLNSMERVKWLRELLQDV-NH2 (lactam 22-26; N-terminus assumed; SMILES CC[C@H](C)[C@H](NC(=O)[C@H](CCC(=O)O)NC(=O)[C@H](CO)NC(=O)[C@@H](NC(=O)[C@@H](N)CO)C(C)C)C(=O)N[C@@H](CCC(N)=O)C(=O)N[C@@H](CC(C)C)C(=O)N[C@@H](CCSC)C(=O)N[C@@H](Cc1c[nH]cn1)C(=O)N[C@@H](CC(N)=O)C(=O)N[C@@H](CC(C)C)C(=O)NCC(=O)N[C@@H](CCCCN)C(=O)N[C@@H](Cc1c[nH]cn1)C(=O)N[C@@H](CC(C)C)C(=O)N[C@@H](CC(N)=O)C(=O)N[C@@H](CO)C(=O)N[C@@H](CCSC)C(=O)N[C@@H](CCC(=O)O)C(=O)N[C@@H](CCCNC(=N)N)C(=O)N[C@H](C(=O)N[C@H]1CCCCNC(=O)CC[C@@H](C(=O)N[C@@H](CC(C)C)C(=O)N[C@@H](CC(C)C)C(=O)N[C@@H](CCC(N)=O)C(=O)N[C@@H](CC(=O)O)C(=O)N[C@H](C(N)=O)C(C)C)NC(=O)[C@H](CCCNC(=N)N)NC(=O)[C@H](CC(C)C)NC(=O)[C@H](Cc2c[nH]c3ccccc23)NC1=O)C(C)C) [[Leu^27]cyclo(Lys^22-Glu^26)-hPTH-(1-31)-NH2] | 4
